The results in this text go back to publication PMC9233695, “Structural mechanism of protein recognition by the FW domain of autophagy receptor Nbr1” (Nature Communications, 2022).

The target in data set [1] is GST-hNBR1(358-498) (human) (UniProt Q14596). The data set is described as follows: SPR; Biacore T200, 25 °C; GST-FW domain captured by anti-GST antibody on a CM5 chip to about 700 RU; synthetic peptide flowed, 100 to 3.13 μM; 10 mM HEPES pH 7.4, 150 mM NaCl, 0.05% Tween 20; steady-state model.
Data set [2] addresses GST-CtNbr1(635–775) (Chaetomium thermophilum). The data set is described as above.
For data set [3] the target is unchanged. The data set is described as follows: SPR; Biacore T200, 25 °C; GST-FW domain captured by anti-GST antibody on a CM5 chip to about 200 RU; CtAms1 protein flowed, 50 to 1.56 nM; 10 mM HEPES pH 7.4, 150 mM NaCl, 0.05% Tween 20; 1:1 binding model. On the technique in general: SPR reads the build-up and loss of mass on a sensor chip optically.
Data set [4] deals with the molecule itself. The data set is described as follows: cryo-EM structure; CtAms1-CtNbr1 FW-MBP fusion protein, 2.2 Å, D2 symmetry.

Chain of GST-CtNbr1(635–775) (Chaetomium thermophilum) (main, as listed by the source): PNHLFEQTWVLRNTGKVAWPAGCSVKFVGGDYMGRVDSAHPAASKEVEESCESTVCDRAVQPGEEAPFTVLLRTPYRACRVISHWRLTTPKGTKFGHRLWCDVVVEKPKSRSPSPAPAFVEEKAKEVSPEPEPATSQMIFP
Chain of GST-hNBR1(358-498) (human) (Q14596 358-498): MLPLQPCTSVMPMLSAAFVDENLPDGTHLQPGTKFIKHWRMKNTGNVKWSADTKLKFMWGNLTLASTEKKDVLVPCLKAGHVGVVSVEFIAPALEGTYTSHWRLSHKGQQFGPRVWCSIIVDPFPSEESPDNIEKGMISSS

Take CtAms1(2–15) peptide: the equilibrium dissociation constant (Kd) was determined as 110 µM in data set [1] and 23 µM in data set [2]. Molecule “FLAG2-His6 (FFH)-tagged CtAms1 (natural protein)” yielded an equilibrium dissociation constant (Kd) in data set [3] of 0.0034 µM.

B1: CtAms1 in the CtAms1-CtNbr1 FW-MBP fusion protein (natural protein, Chaetomium thermophilum, UniProt G0SGP6 1-1079, looked up)
chain: MGGETFDVKGPRPNDYPLRAPKPVGQLISHIYKDRIAQFYNGGQYEHQNLRAMMKEDSVSGEPHVQLWVWHAPGQTRPSFEEAVSNQFVKTNVGEWFGPSWTTHWFRVVLTVPEHLQNKRLLEFHWDSNSEGLVWSEDGKPLQGLTGGGERVEWILPDSFRDGKEHTIYIEMACNRMFGNAPGGDSIQPPDPNKYFRLDKAEIVAIDPDARQLWIDIWILQDAAREFPGDSWESHKALQVCNEIIEAFELGNRESLKKCRKIAEQYLGPNVDSPNVYNSGKEPLVYAIGHCHIDSCWLWPFAETKRKVVRSWSSQCDLMDRYPELNFVCSQAQQYKWLKQLYPYAFERVKKKVAEGRFHPIGGSWVEHDTNMPSGESLVRQFLYGQRFYESNFGKRCKTFWLPDTFGYSAQLPQLCRLAGMTRFLTQKLSWNNINRFPHTTFNWVALDGSQVICHMPPSETYTAEAHFGDVKRSMSQHKSLDQDNTSLLVFGKGDGGGGPTWVQIEKLRRCRGISDTVGLLPRVHMGSSVDDFFDRLERKADTFVTWYGELYFELHRGTYTTQAKNKKNNRRAEAKLRDLELLATIASVQDKSYKYPKEEFDAMWENVLLCQFHDCLPGSSIEMAYRESDQMYADVFSTAEKIMKGVSQVLGLEPALNHMSTTNTVALNTLPWPRRELVKISEKEAAVAHGTGPFLKLQKLETTKPLVTLRQVTKGAFVLENSQLRVHVEKGVITSLYDKQANREVIPKGQKANQYVIFDDKPLYWQAWDVEVYHLDTRKELPSGETEVHENTPHRVSVVTRTKVSDKSHIQTIIALNGAVEGEQSWVEVQSKVDWHETMKFLKVEFPVDVRNTEASYETAFGIVRRPTHYNTSWDMAKFEVCAHRWADLSEYGYGVSILNDSKYGFATAGQTMRLSLLRSPKAPDAHADMGTHHIRWAILPHQGSLSHVTIRKAFEFNNPTKLYSSPDAAALVAAPPPVWLTPDSSPAIVLDTVKRGEDDEDVSRGELPARKGQSVILRMYDSLGGLARGTVVTTWPLKKVCKVNLLEDDLEVVPWENGRFTVELRPFEVASYRLVLA
notes: full-length Ams1 of Chaetomium thermophilum; the first methionine is processed (density map); model holds residues 2-1079; also called CtAms1_1; CtAms1_3; source: S. pombe (Pnmt1 promoter), fusion protein purified (GFP-Trap beads, released with 3C protease)
In the case of B1, the “stoichiometry N” value in data set [4] came out at 4.

As usually defined, the Kd is the free concentration of one partner at which half of the binding sites on the other are occupied at equilibrium, for simple one-to-one binding. A higher Kd goes with a looser complex. For orientation: stoichiometry N means a count of units in the complex or per binding partner.
